Laboratory results from article PMC11241209, “Elucidation of the Gemcitabine Transporters of Escherichia coli K-12 and Gamma-Proteobacteria Linked to Gemcitabine-Related Chemoresistance” (International Journal of Molecular Sciences, 2024).
Read-outs that look alike come from different tables or passages of the source.

Assays:
[1] = test system: Nc1ccn([C@@H]2O[C@H](CO)[C@@H](O)C2(F)F)c(=O)n1; test: cells, lysate or membranes; type: cell-based, Escherichia coli; conditions: labelled compound, pH 6.5, 25 °C, glycerol-energized cells
[2] = test system: Nc1ccn([C@@H]2O[C@H](CO)[C@@H](O)C2(F)F)c(=O)n1; test: cells, lysate or membranes; type: cell-based, Citrobacter freundii; conditions: labelled compound, pH 6.5, 25 °C, glycerol-energized cells
KpNupC = target: T1, KpNupC (Klebsiella pneumoniae, UniProt A0A0H3H172); test: inhibition of [3H]-gemcitabine uptake in E. coli JW2389; type: cell-based
T1 construct: gene KPHS_38160; full-length, C-terminal biotin-acceptor domain tag (pT7-5/-BAD), expressed in E. coli JW2389 (nupC knockout)
T1 sequence (A0A0H3H172 entry or part of it): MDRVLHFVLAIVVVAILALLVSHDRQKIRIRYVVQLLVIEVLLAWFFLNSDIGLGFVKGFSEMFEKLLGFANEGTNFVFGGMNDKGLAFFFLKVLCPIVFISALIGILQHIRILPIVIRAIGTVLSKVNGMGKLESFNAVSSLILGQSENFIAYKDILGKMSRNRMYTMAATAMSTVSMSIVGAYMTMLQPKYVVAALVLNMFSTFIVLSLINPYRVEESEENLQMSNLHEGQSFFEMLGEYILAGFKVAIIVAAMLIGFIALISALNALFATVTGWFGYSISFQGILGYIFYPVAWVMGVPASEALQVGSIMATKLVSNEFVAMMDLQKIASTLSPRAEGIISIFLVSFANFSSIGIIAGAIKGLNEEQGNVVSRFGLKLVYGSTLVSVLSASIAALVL
Source text: inhibition of [3H]-gemcitabine uptake in E. coli JW2389 on KpNupC

NupC = target: T2, NupC (Escherichia coli, UniProt P0AFF2); test: as above; type: cell-based; conditions: read-out: Inhibition by Other Nucleosides / Ki (μM) (Adenosine)
T2 construct: full-length, C-terminal biotin-acceptor domain tag (pT7-5/-BAD), expressed in E. coli JW2389 (nupC knockout)
T2 sequence (P0AFF2 1-400): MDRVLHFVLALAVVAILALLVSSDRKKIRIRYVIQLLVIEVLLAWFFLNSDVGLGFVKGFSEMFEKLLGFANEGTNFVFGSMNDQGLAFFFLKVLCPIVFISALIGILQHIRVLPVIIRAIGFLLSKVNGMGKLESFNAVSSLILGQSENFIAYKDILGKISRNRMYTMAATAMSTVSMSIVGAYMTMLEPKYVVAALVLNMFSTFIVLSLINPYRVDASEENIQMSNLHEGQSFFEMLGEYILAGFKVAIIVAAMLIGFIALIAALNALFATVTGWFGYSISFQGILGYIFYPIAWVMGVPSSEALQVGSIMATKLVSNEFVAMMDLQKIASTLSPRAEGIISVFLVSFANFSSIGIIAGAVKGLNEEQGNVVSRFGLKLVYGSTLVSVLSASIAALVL
Source text: inhibition of [3H]-gemcitabine uptake in E. coli JW2389 on NupC

KpNupC2 = target: T3, KpNupC2 (Klebsiella pneumoniae, UniProt A6T7A8); test: as above; type: cell-based
T3 construct: gene nupC; full-length, C-terminal biotin-acceptor domain tag (pT7-5/-BAD), expressed in E. coli JW2389 (nupC knockout)
T3 sequence (A6T7A8 entry or part of it): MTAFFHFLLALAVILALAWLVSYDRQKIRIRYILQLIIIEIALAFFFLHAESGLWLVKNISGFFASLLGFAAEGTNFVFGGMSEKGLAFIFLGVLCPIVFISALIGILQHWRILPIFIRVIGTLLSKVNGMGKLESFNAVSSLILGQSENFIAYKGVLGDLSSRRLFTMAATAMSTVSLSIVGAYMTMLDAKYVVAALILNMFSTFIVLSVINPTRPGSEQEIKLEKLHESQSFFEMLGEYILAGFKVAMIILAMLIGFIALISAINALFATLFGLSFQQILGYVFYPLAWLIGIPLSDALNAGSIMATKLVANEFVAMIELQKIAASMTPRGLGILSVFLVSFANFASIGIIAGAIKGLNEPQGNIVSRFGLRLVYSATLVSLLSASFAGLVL
Source text: inhibition of [3H]-gemcitabine uptake in E. coli JW2389 on KpNupC2

CfNupG = target: T4, CfNupG (Citrobacter freundii, UniProt A0A0D7LJ63); test: as above; type: cell-based; conditions: read-out: Inhibition by Other Nucleosides / Ki (μM) (Cytidine)
T4 construct: gene nupG; full-length, C-terminal biotin-acceptor domain tag (pT7-5/-BAD), expressed in E. coli JW2389 (nupC knockout)
T4 sequence (A0A0D7LJ63 1-418): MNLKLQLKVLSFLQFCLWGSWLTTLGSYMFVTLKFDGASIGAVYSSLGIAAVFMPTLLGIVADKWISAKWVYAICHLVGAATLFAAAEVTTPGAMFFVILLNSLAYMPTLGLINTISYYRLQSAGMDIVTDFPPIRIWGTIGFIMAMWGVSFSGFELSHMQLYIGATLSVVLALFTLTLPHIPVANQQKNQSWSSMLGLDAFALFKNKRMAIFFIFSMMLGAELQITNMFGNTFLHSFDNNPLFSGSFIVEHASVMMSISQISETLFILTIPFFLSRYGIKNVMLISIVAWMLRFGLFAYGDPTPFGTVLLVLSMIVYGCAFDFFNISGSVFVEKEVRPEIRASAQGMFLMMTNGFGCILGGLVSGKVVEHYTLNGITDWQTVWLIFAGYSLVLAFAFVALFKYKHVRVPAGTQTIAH
Source text: inhibition of [3H]-gemcitabine uptake in E. coli JW2389 on CfNupG

KpNupG = target: T5, KpNupG (Klebsiella pneumoniae, UniProt A6TDX2); test: as above; type: cell-based
T5 construct: gene nupG; full-length, C-terminal biotin-acceptor domain tag (pT7-5/-BAD), expressed in E. coli JW2389 (nupC knockout)
T5 sequence (A6TDX2 1-417): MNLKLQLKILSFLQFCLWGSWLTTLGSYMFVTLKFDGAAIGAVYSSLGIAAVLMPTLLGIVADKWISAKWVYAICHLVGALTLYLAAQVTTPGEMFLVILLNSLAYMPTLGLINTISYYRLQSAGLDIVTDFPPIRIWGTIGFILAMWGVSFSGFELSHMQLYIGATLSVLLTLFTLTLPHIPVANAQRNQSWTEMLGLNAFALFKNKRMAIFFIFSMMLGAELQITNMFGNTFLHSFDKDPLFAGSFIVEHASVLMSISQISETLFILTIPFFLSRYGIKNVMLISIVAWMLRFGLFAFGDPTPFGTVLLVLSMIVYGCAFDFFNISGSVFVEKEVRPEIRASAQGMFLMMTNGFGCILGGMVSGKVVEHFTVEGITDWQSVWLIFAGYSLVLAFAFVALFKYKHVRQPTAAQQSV
Source text: inhibition of [3H]-gemcitabine uptake in E. coli JW2389 on KpNupG

CfNupC = target: T6, CfNupC (Citrobacter freundii, UniProt A0A0D7LF62); test: as above; type: cell-based; conditions: read-out: Inhibition by Other Nucleosides / Ki (μM) (Cytidine)
T6 construct: gene nupC; full-length, C-terminal biotin-acceptor domain tag (pT7-5/-BAD), expressed in E. coli JW2389 (nupC knockout)
T6 sequence (A0A0D7LF62 entry or part of it): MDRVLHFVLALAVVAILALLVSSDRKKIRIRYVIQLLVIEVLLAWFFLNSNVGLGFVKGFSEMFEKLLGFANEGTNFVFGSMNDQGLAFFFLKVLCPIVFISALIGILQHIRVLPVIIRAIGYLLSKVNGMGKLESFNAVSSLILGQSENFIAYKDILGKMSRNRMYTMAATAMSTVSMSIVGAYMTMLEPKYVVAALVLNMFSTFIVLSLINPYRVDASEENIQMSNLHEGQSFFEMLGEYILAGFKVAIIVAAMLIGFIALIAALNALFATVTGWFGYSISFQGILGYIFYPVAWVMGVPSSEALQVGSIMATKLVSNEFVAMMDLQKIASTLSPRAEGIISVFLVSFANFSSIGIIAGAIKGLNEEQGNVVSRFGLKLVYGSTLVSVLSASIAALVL
Source text: inhibition of [3H]-gemcitabine uptake in E. coli JW2389 on CfNupC

[3] = test system: Nc1ccn([C@@H]2O[C@H](CO)[C@@H](O)C2(F)F)c(=O)n1; test: cells, lysate or membranes; type: cell-based, Klebsiella pneumoniae; conditions: labelled compound, pH 6.5, 25 °C, glycerol-energized cells
[4] = test system: Nc1ccn([C@@H]2O[C@H](CO)[C@@H](O)C2(F)F)c(=O)n1; test: cells, lysate or membranes; conditions: labelled compound, pH 6.5, 25 °C, glycerol-energized cells
NupG = target: T7, NupG (Escherichia coli, UniProt P0AFF4); test: inhibition of [3H]-gemcitabine uptake in E. coli JW2389; type: cell-based
T7 construct: full-length, C-terminal biotin-acceptor domain tag (pT7-5/-BAD), expressed in E. coli JW2389 (nupC knockout)
T7 sequence (P0AFF4 1-418): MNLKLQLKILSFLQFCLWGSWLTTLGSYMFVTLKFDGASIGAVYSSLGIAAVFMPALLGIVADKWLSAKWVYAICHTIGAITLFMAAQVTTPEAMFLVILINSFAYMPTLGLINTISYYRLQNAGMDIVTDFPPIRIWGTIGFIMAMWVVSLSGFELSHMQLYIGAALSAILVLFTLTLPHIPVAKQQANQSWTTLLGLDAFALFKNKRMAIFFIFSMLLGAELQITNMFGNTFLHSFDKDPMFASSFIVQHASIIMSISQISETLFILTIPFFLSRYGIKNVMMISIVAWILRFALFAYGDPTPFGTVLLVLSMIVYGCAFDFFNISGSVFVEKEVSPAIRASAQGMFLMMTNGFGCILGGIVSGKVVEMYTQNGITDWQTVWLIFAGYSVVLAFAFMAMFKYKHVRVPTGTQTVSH
Source text: inhibition of [3H]-gemcitabine uptake in E. coli JW2389 on NupG

[5] = substrate: Nc1ccn([C@@H]2O[C@H](CO)[C@@H](O)C2(F)F)c(=O)n1; test: cells, lysate or membranes; conditions: labelled compound, pH 6.5, 25 °C, glycerol-energized cells; remark: listed apart in the source
[6] = read-out: Inhibition by Other Nucleosides / Ki (μM) (Cytidine)

NupC (Escherichia coli K-12)
Km [1]: 9.8 ± 1.0 µM | Vmax [1]: 0.0994 µmol/min/mg | Vmax/Km [1]: 10100 µL/min/mg

CfNupC (Citrobacter freundii)
Km [2]: 12.8 ± 1.3 µM | Vmax [2]: 0.102 µmol/min/mg | Vmax/Km [2]: 7800 µL/min/mg

Nc1ncnc2c1ncn2[C@@H]1O[C@H](CO)[C@@H](O)[C@H]1O [adenosine]
Ki (KpNupC; read-out: Inhibition by Other Nucleosides / Ki (μM) (Adenosine)): 7.7 ± 0.8 µM | Ki (NupC): 5.4 ± 1.4 µM

Nc1ccn([C@@H]2O[C@H](CO)[C@@H](O)[C@H]2O)c(=O)n1 [cytidine]
Ki (KpNupC2; [6]): 6.5 ± 1 µM | Ki (CfNupG): 20.2 ± 3.8 µM | Ki (KpNupG; [6]): 18.1 ± 4 µM | Ki (KpNupC; [6]): 6.7 ± 1.3 µM | Ki (CfNupC): 7.2 ± 1.4 µM

CfNupG (Citrobacter freundii)
Km [2]: 2.7 ± 0.3 µM | Vmax [2]: 0.0474 µmol/min/mg | Vmax/Km [2]: 17200 µL/min/mg

KpNupC2 (Klebsiella pneumoniae subsp. pneumoniae MGH 78578)
Km [3]: 11.6 ± 3.2 µM | Vmax [3]: 0.0873 µmol/min/mg | Vmax/Km [3]: 7500 µL/min/mg

KpNupC (Klebsiella pneumoniae subsp. pneumoniae HS11286)
Km [4]: 10.9 ± 2.0 µM | Vmax [4]: 0.0928 µmol/min/mg | Vmax/Km [4]: 8600 µL/min/mg

Nc1nc2c(ncn2[C@@H]2O[C@H](CO)[C@@H](O)[C@H]2O)c(=O)[nH]1 [guanosine]
Ki (KpNupG; read-out: Inhibition by Other Nucleosides / Ki (μM) (Guanosine)): 18.3 ± 4.5 µM | Ki (NupG): 15.3 ± 5.8 µM

O=c1ccn([C@@H]2O[C@H](CO)[C@@H](O)[C@H]2O)c(=O)[nH]1 [uridine]
Ki (KpNupC2): 6.1 ± 1 µM

B1: NupG (Escherichia coli K-12) (protein)
chain: T7 sequence (P0AFF4 1-418)
Km [5]: 2.8 ± 0.4 µM | Vmax [5]: 0.0461 µmol/min/mg | Vmax/Km [5]: 16600 µL/min/mg

B2: KpNupG (Klebsiella pneumoniae subsp. pneumoniae MGH 78578) (protein)
chain: T5 sequence (A6TDX2 1-417)
Km [5]: 2.8 ± 0.3 µM | Vmax [5]: 0.0456 µmol/min/mg | Vmax/Km [5]: 17100 µL/min/mg
